Assay results reported in publication PMC5503505 (Nature structural & molecular biology, 2017).

B1: Cdt1 (natural protein)
chain: MSGTANSRRKEVLRVPVIDLNRVSDEEQLLPVVRAILLQHDTFLLKNYANKAVLDALLAGLTTKDLPDTSQGFDANFTGTLPLEDDVWLEQYIFDTDPQLRFDRKCRNESLCSIYSRLFKLGLFFAQLCVKSVVSSAELQDCISTSHYATKLTRYFNDNGSTHDGADAGATVLPTGDDFQYLFERDYVTFLPTGVLTIFPCAKAIRYKPSTMATTDNSWVSIDEPDCLLFHTGTLLARWSQGMHTTSPLQIDPRANIVSLTIWPPLTTPISSKGEGTIANHLLEQQIKAFPKVAQQYYPRELSILRLQDAMKFVKELFTVCETVLSLNALSRSTGVPPELHVLLPQISSMMKRKIVQDDILKLLTIWSDAYVVELNSRGELTMNLPKRDNLTTLTNKSRTLAFVERAESWYQQVIASKDEIMTDVPAFKINKRRSSSNSKTVLSSKVQTKSSNANALNNSRYLANSKENFMYKEKMPDSQANLMDRLRERERRSAALLSQRQKRYQQFLAMKMTQVFDILFSLTRGQPYTETYLSSLIVDSLQDSNNPIGTKEASEILAGLQGILPMDISVHQVDGGLKVYRWNSLDKNRFSKLLQIHKSKQQD
B3: Orc1 (natural protein)
chain: MAKTLKDLQGWEIITTDEQGNIIDGGQKRLRRRGAKTEHYLKRSSDGIKLGRGDSVVMHNEAAGTYSVYMIQELRLNTLNNVVELWALTYLRWFEVNPLAHYRQFNPDANILNRPLNYYNKLFSETANKNELYLTAELAELQLFNFIRVANVMDGSKWEVLKGNVDPERDFTVRYICEPTGEKFVDINIEDVKAYIKKVEPREAQEYLKDLTLPSKKKEIKRGPQKKDKATQTAQISDAETRATDITDNEDGNEDESSDYESPSDIDVSEDMDSGEISADELEEEEDEEEDEDEEEKEARHTNSPRKRGRKIKLGKDDIDASVQPPPKKRGRKPKDPSKPRQMLLISSCRANNTPVIRKFTKKNVARAKKKYTPFSKRFKSIAAIPDLTSLPEFYGNSSELMASRFENKLKTTQKHQIVETIFSKVKKQLNSSYVKEEILKSANFQDYLPARENEFASIYLSAYSAIESDSATTIYVAGTPGVGKTLTVREVVKELLSSSAQREIPDFLYVEINGLKMVKPTDCYETLWNKVSGERLTWAASMESLEFYFKRVPKNKKKTIVVLLDELDAMVTKSQDIMYNFFNWTTYENAKLIVIAVANTMDLPERQLGNKITSRIGFTRIMFTGYTHEELKNIIDLRLKGLNDSFFYVDTKTGNAILIDAAGNDTTVKQTLPEDVRKVRLRMSADAIEIASRKVASVSGDARRALKVCKRAAEIAEKHYMAKHGYGYDGKTVIEDENEEQIYDDEDKDLIESNKAKDDNDDDDDNDGVQTVHITHVMKALNETLNSHVITFMTRLSFTAKLFIYALLNLMKKNGSQEQELGDIVDEIKLLIEVNGSNKFVMEIAKTLFQQGSDNISEQLRIISWDFVLNQLLDAGILFKQTMKNDRICCVKLNISVEEAKRAMNEDETLRNL

Columns and labels:
Assay in all cases: cryo-EM structure
Mcm6 = Mcm6 (S. cerevisiae, UniProt P53091 1-1017)
Orc1 = biological target: B3
Cdt1 = biological target: B1
Mcm4 = biological target: T1, Mcm4 (S. cerevisiae, UniProt P30665 1-933)
T1 sequence: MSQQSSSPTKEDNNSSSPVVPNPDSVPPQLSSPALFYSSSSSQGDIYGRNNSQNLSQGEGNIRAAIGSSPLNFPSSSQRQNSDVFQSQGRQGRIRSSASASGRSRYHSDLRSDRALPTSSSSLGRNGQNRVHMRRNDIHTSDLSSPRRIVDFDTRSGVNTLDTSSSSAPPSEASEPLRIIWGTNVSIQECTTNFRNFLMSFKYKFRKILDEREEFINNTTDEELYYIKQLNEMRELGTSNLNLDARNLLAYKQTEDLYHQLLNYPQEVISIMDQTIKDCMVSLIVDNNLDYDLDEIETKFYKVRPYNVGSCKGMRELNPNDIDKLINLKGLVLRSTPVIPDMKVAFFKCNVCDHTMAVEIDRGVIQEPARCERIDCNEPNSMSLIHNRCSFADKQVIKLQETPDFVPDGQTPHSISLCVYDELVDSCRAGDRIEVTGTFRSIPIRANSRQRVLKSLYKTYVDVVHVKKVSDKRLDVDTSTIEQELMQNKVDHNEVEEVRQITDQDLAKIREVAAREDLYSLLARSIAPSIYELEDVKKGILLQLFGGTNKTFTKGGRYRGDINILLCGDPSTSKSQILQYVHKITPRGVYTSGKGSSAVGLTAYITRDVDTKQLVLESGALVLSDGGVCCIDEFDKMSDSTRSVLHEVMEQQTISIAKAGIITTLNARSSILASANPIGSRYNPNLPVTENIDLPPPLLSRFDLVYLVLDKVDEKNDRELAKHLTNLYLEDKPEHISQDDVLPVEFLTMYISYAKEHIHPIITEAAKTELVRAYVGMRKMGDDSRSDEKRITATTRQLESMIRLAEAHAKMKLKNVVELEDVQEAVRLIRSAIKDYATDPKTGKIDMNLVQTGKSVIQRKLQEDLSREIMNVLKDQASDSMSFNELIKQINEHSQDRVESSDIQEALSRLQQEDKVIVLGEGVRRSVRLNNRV

Mcm3 = Mcm3 (S. cerevisiae, UniProt P24279 1-971)
Chain of Mcm3 (P24279 whole entry): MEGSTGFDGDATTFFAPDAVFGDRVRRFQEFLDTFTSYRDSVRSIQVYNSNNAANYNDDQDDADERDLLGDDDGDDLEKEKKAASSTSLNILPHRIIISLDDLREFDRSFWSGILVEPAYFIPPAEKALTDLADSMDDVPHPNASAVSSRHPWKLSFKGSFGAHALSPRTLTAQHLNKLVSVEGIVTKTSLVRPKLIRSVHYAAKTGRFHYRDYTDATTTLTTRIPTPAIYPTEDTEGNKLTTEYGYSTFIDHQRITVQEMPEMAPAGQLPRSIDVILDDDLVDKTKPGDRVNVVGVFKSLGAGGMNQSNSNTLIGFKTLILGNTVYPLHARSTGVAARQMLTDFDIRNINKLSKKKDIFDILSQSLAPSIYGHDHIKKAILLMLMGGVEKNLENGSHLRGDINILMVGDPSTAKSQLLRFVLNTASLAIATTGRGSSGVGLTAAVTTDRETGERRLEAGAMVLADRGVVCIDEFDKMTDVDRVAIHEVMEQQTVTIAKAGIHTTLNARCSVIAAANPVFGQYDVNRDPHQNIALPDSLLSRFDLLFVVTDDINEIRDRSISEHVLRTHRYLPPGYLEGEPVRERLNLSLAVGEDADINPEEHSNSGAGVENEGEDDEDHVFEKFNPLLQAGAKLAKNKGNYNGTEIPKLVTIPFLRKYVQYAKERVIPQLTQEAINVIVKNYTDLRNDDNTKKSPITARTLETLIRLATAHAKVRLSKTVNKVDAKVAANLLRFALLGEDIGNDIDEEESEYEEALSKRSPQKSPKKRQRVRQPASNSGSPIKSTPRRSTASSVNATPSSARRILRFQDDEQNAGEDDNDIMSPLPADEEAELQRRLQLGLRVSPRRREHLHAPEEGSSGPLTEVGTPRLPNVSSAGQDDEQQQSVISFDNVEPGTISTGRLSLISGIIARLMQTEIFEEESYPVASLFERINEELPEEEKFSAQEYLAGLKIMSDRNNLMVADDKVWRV

Chain of Mcm6 (P53091 whole entry): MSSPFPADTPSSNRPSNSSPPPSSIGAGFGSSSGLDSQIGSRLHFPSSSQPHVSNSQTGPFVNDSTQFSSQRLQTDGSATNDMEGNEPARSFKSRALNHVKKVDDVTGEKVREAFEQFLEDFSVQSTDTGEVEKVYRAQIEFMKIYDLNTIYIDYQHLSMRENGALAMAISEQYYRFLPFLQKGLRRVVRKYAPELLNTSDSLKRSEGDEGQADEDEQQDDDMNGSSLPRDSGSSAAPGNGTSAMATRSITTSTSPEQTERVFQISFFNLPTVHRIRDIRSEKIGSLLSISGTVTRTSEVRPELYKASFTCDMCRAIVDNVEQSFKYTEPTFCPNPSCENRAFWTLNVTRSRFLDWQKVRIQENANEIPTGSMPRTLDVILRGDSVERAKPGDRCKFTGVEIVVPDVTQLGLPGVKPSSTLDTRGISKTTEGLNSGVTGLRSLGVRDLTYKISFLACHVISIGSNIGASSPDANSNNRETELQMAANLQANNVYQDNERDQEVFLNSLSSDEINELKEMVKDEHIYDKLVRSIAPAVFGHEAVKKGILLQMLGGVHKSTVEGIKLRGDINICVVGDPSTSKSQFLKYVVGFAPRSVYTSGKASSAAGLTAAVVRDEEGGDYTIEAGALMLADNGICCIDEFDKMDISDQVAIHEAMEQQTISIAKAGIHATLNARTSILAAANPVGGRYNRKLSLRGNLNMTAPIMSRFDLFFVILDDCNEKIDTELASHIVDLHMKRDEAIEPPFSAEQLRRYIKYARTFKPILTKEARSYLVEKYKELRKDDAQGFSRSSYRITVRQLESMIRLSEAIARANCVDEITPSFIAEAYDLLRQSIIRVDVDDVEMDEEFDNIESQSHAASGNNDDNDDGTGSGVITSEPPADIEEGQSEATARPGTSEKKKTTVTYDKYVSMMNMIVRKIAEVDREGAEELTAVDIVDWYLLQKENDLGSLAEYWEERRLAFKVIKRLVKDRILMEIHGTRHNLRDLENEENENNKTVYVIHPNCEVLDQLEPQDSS

B1: binds (Mcm6).

B2: Orc4 (natural protein)
chain: MTISEARLSPQVNLLPIKRHSNEEVEETAAILKKRTIDNEKCKDSDPGFGSLQRRLLQQLYGTLPTDEKIIFTYLQDCQQEIDRIIKQSIIQKESHSVILVGPRQSYKTYLLDYELSLLQQSYKEQFITIRLNGFIHSEQTAINGIATQLEQQLQKIHGSEEKIDDTSLETISSGSLTEVFEKILLLLDSTTKTRNEDSGEVDRESITKITVVFIFDEIDTFAGPVRQTLLYNLFDMVEHSRVPVCIFGCTTKLNILEYLEKRVKSRFSQRVIYMPQIQNLDDMVDAVRNLLTVRSEISPWVSQWNETLEKELSDPRSNLNRHIRMNFETFRSLPTLKNSIIPLVATSKNFGSLCTAIKSCSFLDIYNKNQLSNNLTGRLQSLSDLELAILISAARVALRAKDGSFNFNLAYAEYEKMIKAINSRIPTVAPTTNVGTGQSTFSIDNTIKLWLKKDVKNVWENLVQLDFFTEKSAVGLRDNATAAFYASNYQFQGTMIPFDLRSYQMQIILQELRRIIPKSNMYYSWTQL
B2: binds (Orc1); binds (Mcm6); binds (Cdt1).

B3: binds (Mcm4).

B4: Mcm7 (natural protein)
chain: MSAALPSIQLPVDYNNLFNEITDFLVTFKQDTLSSDATRNENEDENLDAENIEQHLLEKGPKYMAMLQKVANRELNSVIIDLDDILQYQNEKFLQGTQADDLVSAIQQNANHFTELFCRAIDNNMPLPTKEIDYKDDVLDVILNQRRLRNERMLSDRTNEIRSENLMDTTMDPPSSMNDALREVVEDETELFPPNLTRRYFLYFKPLSQNCARRYRKKAISSKPLSVRQIKGDFLGQLITVRGIITRVSDVKPAVEVIAYTCDQCGYEVFQEVNSRTFTPLSECTSEECSQNQTKGQLFMSTRASKFSAFQECKIQELSQQVPVGHIPRSLNIHVNGTLVRSLSPGDIVDVTGIFLPAPYTGFKALKAGLLTETYLEAQFVRQHKKKFASFSLTSDVEERVMELITSGDVYNRLAKSIAPEIYGNLDVKKALLLLLVGGVDKRVGDGMKIRGDINVCLMGDPGVAKSQLLKAICKISPRGVYTTGKGSSGVGLTAAVMKDPVTDEMILEGGALVLADNGICCIDEFDKMDESDRTAIHEVMEQQTISISKAGINTTLNARTSILAAANPLYGRYNPRLSPLDNINLPAALLSRFDILFLMLDIPSRDDDEKLAEHVTYVHMHNKQPDLDFTPVEPSKMREYIAYAKTKRPVMSEAVNDYVVQAYIRLRQDSKREMDSKFSFGQATPRTLLGIIRLSQALAKLRLADMVDIDDVEEALRLVRVSKESLYQETNKSKEDESPTTKIFTIIKKMLQETGKNTLSYENIVKTVRLRGFTMLQLSNCIQEYSYLNVWHLINEGNTLKFVDDGTMDTDQEDSLVSTPKLAPQTTASANVSAQDSDIDLQDA
B4: binds (Mcm3); binds (Mcm4).
